# According to patent publication US20140162285A1, “Methods of Modulating Vesicular Trafficking” (The General Hospital Corporation, priority 2009, published 2014):
# “Also recorded” adds a separate entry of the source. Ends that are not written are not given here. * marks the point of attachment. FITC = O=C1OC2(c3ccc(O)cc3Oc3cc(O)ccc32)c2ccc(NC(=S)*)cc21; Biotin = O=C1N[C@H]2[C@H](CS[C@H]2CCCCC(=O)*)N1; βAla = NCCC(=O)O
# T1: GST-ARNO(wt) (Homo sapiens, UniProt Q99418)
# T1 construct: i) 1-400aa, full length ARNO(wt); made in house; host or cells: E. coli BL21(DE3)
# T1 sequence (Q99418 1-400): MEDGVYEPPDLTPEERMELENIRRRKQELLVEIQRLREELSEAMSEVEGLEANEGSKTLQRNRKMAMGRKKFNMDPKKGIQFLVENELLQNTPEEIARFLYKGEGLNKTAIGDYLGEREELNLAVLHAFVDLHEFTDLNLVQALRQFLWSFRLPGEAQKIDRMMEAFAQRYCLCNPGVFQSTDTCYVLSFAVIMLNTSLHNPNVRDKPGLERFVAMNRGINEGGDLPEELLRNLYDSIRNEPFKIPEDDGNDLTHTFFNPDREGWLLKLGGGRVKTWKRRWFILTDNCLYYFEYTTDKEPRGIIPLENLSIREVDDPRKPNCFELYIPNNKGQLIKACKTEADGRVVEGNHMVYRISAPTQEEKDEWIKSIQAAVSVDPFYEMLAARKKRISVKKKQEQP
# T2: Sec7-domain of ARNO (Homo sapiens, UniProt Q99418)
# T2 construct: iii) 61-252aa, Sec7 domain; GST (N, cleaved yes); made in house; host or cells: E. coli BL21(DE3)
# T2 sequence (Q99418 61-252): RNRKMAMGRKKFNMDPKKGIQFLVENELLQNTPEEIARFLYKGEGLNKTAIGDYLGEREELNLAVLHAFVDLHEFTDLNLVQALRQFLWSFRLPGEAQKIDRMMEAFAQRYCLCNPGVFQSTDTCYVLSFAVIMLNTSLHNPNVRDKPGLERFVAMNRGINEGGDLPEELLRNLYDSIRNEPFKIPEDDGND
# T3: PH-domain of ARNO (Homo sapiens, UniProt Q99418)
# T3 construct: iv) 253-378aa, plekstrin-homology (PH) domain; made in house; host or cells: E. coli BL21(DE3)
# T3 sequence (Q99418 253-378): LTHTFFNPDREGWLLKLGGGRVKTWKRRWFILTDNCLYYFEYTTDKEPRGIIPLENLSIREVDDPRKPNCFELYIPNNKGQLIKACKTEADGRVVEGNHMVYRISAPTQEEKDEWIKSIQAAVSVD
# T4: recombinant ARNO (human, UniProt Q99418 1-400, limits assumed)
# T4 sequence (looked up): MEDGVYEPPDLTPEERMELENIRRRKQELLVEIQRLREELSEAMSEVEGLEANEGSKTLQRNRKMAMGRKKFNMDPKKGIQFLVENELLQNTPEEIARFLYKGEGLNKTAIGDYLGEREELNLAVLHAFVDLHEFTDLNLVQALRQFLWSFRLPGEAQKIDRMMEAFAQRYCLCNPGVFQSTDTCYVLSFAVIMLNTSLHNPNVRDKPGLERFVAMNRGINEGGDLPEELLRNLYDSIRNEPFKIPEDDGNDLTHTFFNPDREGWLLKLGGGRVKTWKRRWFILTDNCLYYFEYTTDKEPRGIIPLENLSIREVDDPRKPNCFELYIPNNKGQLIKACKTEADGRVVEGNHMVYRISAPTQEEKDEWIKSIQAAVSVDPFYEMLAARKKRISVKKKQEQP
# Experiments:
# [1] = molecular target: T1, GST-ARNO(wt); experiment: a2N-derived peptide pull-down assay with GST-ARNO(wt); format: binding; design: key to interaction with ARNO (asterisk mark in Table 1): The interacting peptides are indicated in bold with an asterisk (*)
# Experimental: FIG. 2A is an image of a Western blot showing the results of an a2N-derived peptide pull-down assay. The indicated a2N-derived peptides were immobilized on streptavidin-beads and incubated with purified recombinant GST-ARNO(wt). Interacting complexes were eluted and analyzed by Western blotting using monoclonal anti-GST antibodies.
# FIG. 2B is an image of a Western blot showing the results of a pull-down assay with selected a2N-derived interacting peptides incubated with either GST (negative control) or GST-ARNO(wt). The first two lanes show the patterns obtained when either GST-only (lane 1) or GST-ARNO(wt) (lane 2) were loaded onto the gel.
# Peptides were synthesized, purified by HPLC and analyzed by mass spectrometry in the MGH Peptide/Protein Core Facility. All a2N-derived peptides were synthesized with a biotin-tag on the N-terminus for immobilization on streptavidin-agarose beads and with an additional C-terminal cysteine residue for immobilization on beads using sulfhydryl-specific crosslinkers. A peptide corresponding to the PB-domain of ARNO was synthesized containing either a non-phosphorylated or a phosphorylated Ser392 residue. Peptide stock solutions were prepared in DMSO at 5 mM concentration and stored at −20° C. […]
# [2] = molecular target: T2, Sec7-domain of ARNO; experiment: a2N-derived peptide pull-down with GST-Sec7 domain; format: binding; conditions: GST-Sec7-6His
# Experimental: (§1) FIGS. 5A-C are a set of three images of Western blots showing the identification of interaction motif of a2N that is involved in specific binding with the Sec7 domain of ARNO. 5A, The catalytic Sec7 domain of ARNO interacts with two a2N-derived peptides, a2N-01 and a2N-03, in pull-down experiments. The peptide pull-down assay was performed with six a2N-derived interaction peptides immobilized on streptavidin-beads and incubated with purified recombinant GST-only or GST-Sec7 domain. Interacting complexes were eluted and analyzed by Western blotting using monoclonal anti-GST antibodies as described below. The loading controls for GST-only (lane 1) or GST-Sec7 (lane 2) are shown. […] The peptide pull-down assay was performed with peptides a2N-01 and a2N-03 immobilized on streptavidin-beads and incubated with purified recombinant GST-PH domain (5B) or GST-PB domain (5C). Interacting complexes were eluted and analyzed by Western blotting using monoclonal anti-GST antibodies. […]
# (§2) These a2N-derived peptides were immobilized by an N-terminal biotin-tag, which ensured the same efficiency and equivalent binding to streptavidin-agarose beads. […] After washing beads four times in ice-cold binding buffer, the interacting complexes were eluted by boiling in SDS-PAGE sample buffer for 10 min at 95° C., resolved by SDS-PAGE and analyzed by Western blotting using monoclonal anti-GST antibody.
# [3] = molecular target: T3, PH-domain of ARNO; experiment: a2N-derived peptide pull-down with GST-PH domain; format: binding
# Experimental: as §1
# as §2, with “antibody. […]” for “antibody.”
# [4] = molecular target: T5, PB-domain of ARNO (Homo sapiens, UniProt Q99418); experiment: a2N-derived peptide pull-down with GST-PB domain; format: binding
# T5 construct: v) 379-400aa, polybasic (PB) domain; made in house; host or cells: E. coli BL21(DE3)
# Experimental: as §1
# as §2, with “antibody. […]” for “antibody.”
# [5] = molecular target: T4, recombinant ARNO; experiment: cell-based or functional assay
# [6] = molecular target: T6, GST-only (UniProt P08515 1-218 = GST); experiment: peptide pull-down: biotinylated peptide on streptavidin beads, GST-only in solution, Western blot with anti-GST antibody
# T6 construct: Control bait/prey in pull-down assays; also called GST (negative control)
# T6 sequence (P08515 whole entry): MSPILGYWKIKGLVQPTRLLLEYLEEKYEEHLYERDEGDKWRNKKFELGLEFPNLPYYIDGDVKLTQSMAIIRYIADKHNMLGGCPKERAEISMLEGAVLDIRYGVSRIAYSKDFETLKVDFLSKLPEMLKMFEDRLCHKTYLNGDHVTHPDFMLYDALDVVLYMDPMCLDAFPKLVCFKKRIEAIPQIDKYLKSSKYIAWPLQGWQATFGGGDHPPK
# [7] = molecular target: Sec7-6His recombinant protein (human) (UniProt Q99418); experiment: SPR (BIAcore T100), biotinylated a2N-01 captured on neutravidin, Sec7-6His as analyte, 1:1 fit
# [8] = molecular target: Sec7-6His recombinant protein (human) (UniProt Q99418); experiment: calculated from the SPR KD (deltaG = RT ln KD)
molecule,measurement,setting,value
"Bio-VQFRDLNQNVSSFQR-Cys (VQFRDLNQNVSSFQRC) [a2N-03, AA 35-49 of a2N]",interaction of a2N-derived peptide with GST-ARNO(wt) in pull-down,"[1]; Western blot anti-GST, GST-only as control",specific interaction; also recorded: capable of interaction with ARNO
same,interaction with ARNO (asterisk mark in Table 1),[1]; biotin-tagged peptides on streptavidin beads,Bio-VQFRDLNQNVSSFQR-Cys *
same,interaction with Sec7-domain of ARNO,[2],interacts
same,interaction with PH-domain of ARNO,[3],interacts equally well
same,interaction with PB-domain of ARNO,[4],interacts equally well
{FITC-βAla}-MGSLFRSESMCLAQLFLYGRKKRRQRRR [FITC-a2N-01-TAT],"IC50 of inhibition of ARNO's GEF activity (radiolabel GDP/GTP-exchange assay, 5% PIP2 vesicles)",[5],~700 nM
"Biotin-MGSLFRSESMCLAQLFLC (cysteine pairing not given here, Synthetic peptide from the mouse V-ATPase a2-subunit N-terminal tail; Bio- at N-terminus, extra Cys at C-terminus; also called a2N1-17; biotinylated a2N-01 peptide) [a2N-01]",binding result,[6],no binding
same,Kd,[7],344 nM
same,koff,[7],0.00086 s⁻¹
same,kon,[7],2500 M⁻¹ s⁻¹
same,free energy of binding,[8],-8.81 kcal/mol
